Reference: patent publication US7838288B2, “Modulators of odorant receptors” (Duke University, priority 2004, dated 2010)

Assays:
[1] = test system: olfr62; experiment: CRE-luciferase reporter gene assay, olfr62; format: cell-based, mouse; conditions: 293T cells and Hana3A cells expressing RTP1 variant
Experimental: Four ORs (S6/79, S18, S46 and S50) previously assayed using other techniques (see, e.g., Malnic, B., et al. (1999) Cell 96, 713-723; herein incorporated by reference in its entirety) were tested against an assay panel of aliphatic alcohols, aldehydes and acids and some other odorants. Additionally, five “orphan” class I ORs (MOR23-1, MOR31-4, MOR31-6, MOR32-5 and MOR32-11) whose cognate ligands were unknown were tested. At a suprathreshold concentration of 100 uM, all these ORs were odorant selective, responding to only a small subset of the odorants tested (see FIG. 11A). This specificity was retained at lower, more physiologically relevant concentrations. Many of these ORs responded to odorants present in micromolar concentrations. The cell-surface expression of these ORs by living-cell immunofluorescence were evaluated. Some ORs (S18, MOR31-4, MOR31-6 and MOR32-5) were strongly expressed while other ORs (S6, S50, MOR23-1, MOR32-11) were weakly expressed (see FIG. 12). The present invention is not limited to a particular mechanism. Indeed, an understanding of the mechanism is not necessary to practice the present invention. […] Finally, two additional orphan class II ORs, MOR203-1 and olfr62, were tested against a panel of 139 odorants. […] Olfr62 responded to coumarine and piperonal (see FIG. 11C). […] When parental 293T cells for these ORs were used in this luciferase assay, little or no response to the odorants was observed. The present invention is not limited to a particular mechanism. Indeed, an understanding of the mechanism is not necessary to practice the present invention.
Dual-Glo system (Promega) for luciferase assay was used. CRE-Luciferase (Stratagene) was used to measure the receptor activities. Renilla luciferase driven by constitutively active SV40 promoter (pRL-SV40: Promega) was used as an internal control. Cells were plated on poly-D-lysine coated 96 well plates (BIOCOAT, Beckton Dickinson). After 8 hours (for experiments shown in FIGS. 8B and 8C) or 12 hours (for experiments shown in FIG. 8D and FIG. 11) after transfection, the medium was replaced with CD293 chemically defined medium (Invitrogen) and the plates were incubated for one hour at 37 degrees C. The medium was replaced with 50 ul of odorant solutions dissolved in CD293 and incubated for 10 hours (for experiments shown in FIGS. 8B and 8C) or 4 hours (for experiments shown in FIG. 8D and FIG. 11) at 37 degrees C. The manufacture's protocol for measuring luciferase and Renilla luciferase activities was followed. Luminescence was measured using Wallac Victor 1420 (Perkin-Elmer). Normalized luciferase activity was calculated as [Luc (N)-Luc (0)]/RL (N), where Luc (N)=Luminescent count of a certain well, Luc (0)=Luminescent count without odorant for each OR, and RL (N)=Luminescent count of Renilla Luciferase of each well. For cAMP assays, cells were plated onto 24-well plate. […]. Prism software (Graphpad) was used for data analysis. […]

[2] = test system: olfr62; experiment: Living-cell staining of cell-surface olfr62; format: cell-based, mouse
Experimental: The proteins encoded by these clones were named REEP1, for Receptor Expression Enhancing Protein 1 and RTP1, for Receptor Transporting Protein 1. Subsequently, RTP2 was found, a close relative of RTP1. […] Next, REEP1, RTP1, and RTP2 were tested to detect a similar effect in promoting cell-surface expression of other ORs. Four different ORs (mouse OREG, mouse olfr62, mouse OR-S46 and rat I7) were expressed in 293T cells with or without REEP1, RTP1, or RTP2. […] Additionally, ORs transfected with REEP and/or RTP generated more immunofluorescent cells and stronger signals in positive cells compared with ORs without REEP and/or RTP (see FIG. 2A). The signal intensity and the number of immunopositive cells varied when using different ORs at each condition. […] Nonetheless, occasional immunopositive cells were observed only when the accessory proteins were co-expressed. The effects of RTP1 or RTP2 were consistently more robust than that of REEP1. The enhancement of cell-surface expression was specific for ORs and not for other GPCRs: neither REEP and/or RTP enhanced expression of the β2 adrenergic receptor, mT2R5 (a mouse bitter taste receptor) (see, e.g., Chandrashekar, J., et al. (2000) Cell 100, 703-711; herein incorporated by reference in its entirety), or a V2R pheromone receptor (VR4) (see, e.g., Matsunami, H., and Buck, L. B. (1997) Cell 90, 775-784; herein incorporated by reference in its entirety) (see FIG. 2A and FIG. 3). Finally, enhancement of cell-surface expression of MOR203-1 was not observed when other members of the REEP and RTP families (REEP2 and RTP4) were co-expressed.
293T cells were maintained in minimal essential medium containing 10% fetal bovine serum (M10). Lipofectamine 2000 (Invitrogen) was used for transfection. In live-cell staining, 16 hours after transfection, cells were incubated in M10 containing anti rhodopsin antibody, 4D2 (see, e.g., Laird, D. W., and Molday, R. S. (1988) Invest Opthalmol V is Sci 29, 419-428; herein incorporated by reference in its entirety) and 15 mM NaN3 at 4 degrees C. for 1 hour. After washing, cells were incubated with Cy3-conjugated anti mouse IgG (Jackson Immunologicals), washed and mounted. For FACS analysis, 4D2 and PE-conjugated anti mouse IgG (Jackson Immunologicals) were used to monitor the Rho tagged receptor expression. Anti HA rabbit antibodies (Sigma) and Alexa 488 conjugated anti rabbit IgG (Molecular Probes) was used to stain the HA-β2 adrenergic receptor. To establish the Hana3a cells, 1 ug/ml of puromycin was used for selection. 96 colonies were picked and assayed using luciferase assay using OREG.

[3] = test system: MOR203-1; experiment: Co-immunoprecipitation with HA-tagged MOR203-1; format: binding, mouse; conditions: Flag-tagged protein, 293T cells, HA-MOR203-1 precipitated
Experimental: Given the ability of REEP and/or RTP to promote cell-surface expression of ORs, it was hypothesized that they may also interact with OR proteins. This was assessed using co-immunoprecipitation assays. HA-tagged MOR203-1 and Flag-tagged REEP1, RTP1 or ICAP-1, a negative control (see, e.g., Zawistowski, J. S., et al. (2002) Hum Mol Genet. 11, 389-396; herein incorporated by reference in its entirety) were transfected in 293T cells. After the cell extracts were precipitated with anti-Flag antibodies, proteins were eluted in SDS-sample buffer at room temperature whereupon western blotting analysis was performed to detect the OR proteins. OR proteins were detected as high molecular weight bands after precipitation of REEP1 or RTP1 (see FIG. 7B, lanes 1 and 2). […] The present invention is not limited to a particular mechanism. Indeed, an understanding of the mechanism is not necessary to practice the present invention.
293T cells in 100 mm dishes were transfected with ORs, REEP1, and/or RTP1 cDNAs. 16 hours after transfection, cells were lysed in lysis buffer (50 mM Tris (7.4), 150 mM NaCl, 1% NP-40, 0.5 mM PMSF, 2 mM Benzamidene, 0.5 ug/ml Leupeptin, 1.4 ug/ml pepstatin A, 2.4 ug/ml chymostatin, 15 ug/ml aprotinin, 1 mM sodium orthovanadate). The lysis were incubated with anti-Flag M2 affinity gel (Sigma) or anti-HA affinity matrix (Roche) for 2 hours at 4 degrees C. and washed with lysis buffer. Subsequently, the bound proteins were eluted by incubation with SDS sample buffer at room temperature for 2 hours. SDS-PAGE and western blotting were performed according to Mini-Protean 3 Cell (Bio-Rad) instruction manual. ECL (Amersham) was used for detecting proteins on membranes.

[4] = accessory protein co-transfected in 293T cells

B1: RTP1-D: RTP1 variant generated by deleting portions of RTP1; murine SEQ ID NO: 44 (protein, listed as Mus musculus)
chain: MRIFRPWRLRCPALHLPSFPTFSIKCSLPPLPTDEDMCKSVTTGEWKKVFYEKMEEVKPADSWDFIIDPNLKHNVLAPGWKQYLELHASGRFHCSWCWHTWQSPHVVILFHMYLDKAQRAGSVRMRVFKQLCYECGTARLDESSMLEENIESLVDNLITSLREQCYGERGGHYRIHVASRQDNRRHRGEFCEACQEGIVHWKPSEKLLEEEATTYTFSRAPSPTKPQAETGSGC
OLFR62 activity as indicated by luciferase expression [1]: Increased enhancement
cell-surface expression of olfr62 ([2]; RTP1 variant cDNA transfected into Hana3A cells or 293T cells): Increased cell-surface staining

B2: RTP1-D1: RTP1 variant from deleting portions of RTP1-D; murine SEQ ID NO: 48 (protein, listed as Mus musculus)
chain: MRIFRPWRLRCPALHLPSFPTFSIKCSLPPLPTDEDMCKSVTTGEWKKVFYEKMEEVKPADSWDFIIDPNLKHNVLAPGWKQYLELHASGRFHCSWCWHTWQSPHVVILFHMYLDKAQRAGSVRMRVFKQLCYECGTARLDESSMLEENIESLVDNLITSLREQCYGERGGHYRIHVASRQDNRRHRGEFCEACQEGIVHWKPSEKLLEEEA
cell-surface expression of olfr62 [2, 4]: Increased cell-surface staining

B3: RTP1-D3: RTP1 variant from deleting portions of RTP1-D; murine SEQ ID NO: 50 (protein, listed as Mus musculus)
chain: MRIFRPWRLRCPALHLPSFPTFSIKCSLPPLPTDEDMCKSVTTGEWKKVFYEKMEEVKPADSWDFIIDPNLKHNVLAPGWKQYLELHASGRFHCSWCWHTWQSPHVVILFHMYLDKAQRAGSVRMRVFKQLCYECGTARLDESSMLEENIESLVDNLITSLREQCYGERGGHYRIHVASRQDNRRHRGEFCEACQEGIVHWKPSEKLLEEEATTYTFSRAPSPTKPQAETGSGCNFCSIPWCLFWATVLMLII
cell-surface expression of olfr62 [2, 4]: Increased cell-surface staining

B4: ICAP-1: a negative control protein, Flag-tagged (protein, UniProt O14713 1-200, looked up)
Integrin beta-1-binding …: MFRKGKKRHSSSSSQSSEISTKSKSVDSSLGGLSRSSTVASLDTDSTKSSGQSNNNSDTCAEFRIKYVGAIEKLKLSEGKGLEGPLDLINYIDVAQQDGKLPFVPPEEEFIMGVSKYGIKVSTSDQYDVLHRHALYLIIRMVCYDDGLGAGKSLLALKTTDASNEEYSLWVYQCNSLEQAQAICKVLSTAFDSVLTSEKP
modifications: Flag tag
notes: a negative control protein, Flag-tagged
co-precipitation with HA-MOR203-1 [3]: not detectable
